Assay results: the RNAGym collection of RNA variant scans (doi:10.7554/elife.80360)

B1: HDV Ribozyme (parent)
chain: GGCCGGCAUGGUCCCAGCCUCCUCGCUGGCGCCGGCUGGGCAACAUUCCGAGGGGACCGUCCCCUCGGUAAUGGCGAAUGGGACCCA

Variants of: B1
Assay: self-cleavage, relative activity (ratio to wild type); higher = more cleavage; co-transcriptional

Row | Variant | self-cleavage
1 | GGCCGACAUGGUCCCAGCCUCCUCGCUGGGGCCGGCUGGGCAACAUUCCGAGGGGACCGUCCCCUCGGUAAUGGCGAAUGGGACCCA | 0.0678
2 | GGCCUCCAUGGUCCCAGCCUCCUCGCUGGCGCCGGCUGGGCAACAUUCCGAGGGGACCGUCCCCUCGGUAAUGGCGAAUGGGACCCA | 0
3 | GGCCUUCAUGGUCCCAGCCUCCUCGCUGGCGCCGGCUGGGCAACAUUCCGAGGGGACCGUCCCCUCGGUAAUGGCGAAUGGGACCCA | 0
4 | GGCCGACAUGGUCCCAGCUUCCUCGCUGGCGCCGGCUGGGCAACAUUCCGAGGGGACCGUCCCCUCGGUAAUGGCGAAUGGGACCCA | 0.0875
5 | GGCCUGCAUGGUCCCAGCCUCCUCGCUGGCGCCGGCUGGGCAACAUUCCGAGGGGACCGUCCCCUCGCUAAUGGCGAAUGGGACCCA | 0.359
6 | GGCCGACAUGGUCCCAGCCUACUCGCUGGCGCCGGCUGGGCAACAUUCCGAGGGGACCGUCCCCUCGGUAAUGGCGAAUGGGACCCA | 0.0707
7 | GGCCUGCAUGGUCCCAGCCUCCUCGCUGGCGCCGGCUGGGCAACAUUCCGAGGGGACCGUCCCCUCGGUAAUGGCAAAUGGGACCCA | 0.391
8 | GGCCGACAUGGUCCCAGCCUCCUCGCUGGCGCCGGCUGGGCAACAUUCCGAGGGGACCGUCCGCUCGGUAAUGGCGAAUGGGACCCA | 0.601
9 | GGCCGACAUGGUCCCAGCCUCCUCGCUGGCGCCGGCUGGGCAACAUUCCGAGGGGACCGUCCUCUCGGUAAUGGCGAAUGGGACCCA | 0.743
10 | GGCCGACAUGGUCCCAGCCUCCUCGCUGGCGCCGGCUGGGCAACAUUCCGAGGGGACAGUCCCCUCGGUAAUGGCGAAUGGGACCCA | 0.724
11 | GGCCGACAUGGUCCCAGCCUCCUCGCUGGCUCCGGCUGGGCAACAUUCCGAGGGGACCGUCCCCUCGGUAAUGGCGAAUGGGACCCA | 0.219
12 | GGCCUGCAUGGUCCCAGCCUCCUCGCUAGCGCCGGCUGGGCAACAUUCCGAGGGGACCGUCCCCUCGGUAAUGGCGAAUGGGACCCA | 0
13 | GGCCUGCAUGGUCCCAGCCUCCUCGCUUGCGCCGGCUGGGCAACAUUCCGAGGGGACCGUCCCCUCGGUAAUGGCGAAUGGGACCCA | 0.115
14 | GGCCGACAUGGUCCCAGCCUCCUCGCUGGCGCCGGCUGGGCAACAUUCCGAGGGGACCGUCACCUCGGUAAUGGCGAAUGGGACCCA | 0.543
15 | GGCCUGCAUGGUCCCAGCCUCCUCGCUGGCGCCGGCUGGGCAACAUUCCGAGGUGACCGUCCCCUCGGUAAUGGCGAAUGGGACCCA | 0.612
16 | GGCCUGCAUGGUCCCAGCCUCCUCGCUGGCGCCGGCAGGGCAACAUUCCGAGGGGACCGUCCCCUCGGUAAUGGCGAAUGGGACCCA | 0.0723
17 | GGCCGACAUGGUCCCAGCCUCCUCGAUGGCGCCGGCUGGGCAACAUUCCGAGGGGACCGUCCCCUCGGUAAUGGCGAAUGGGACCCA | 0.888
18 | GGCCGACAUGGUCCCAGCCUCCUCGCUGGCGCCGGCUGGGCAGCAUUCCGAGGGGACCGUCCCCUCGGUAAUGGCGAAUGGGACCCA | 0.277
19 | GGCCGACAUGGUCCCAGCCUCCUCGCUGGCGCCGGCUGGGCACCAUUCCGAGGGGACCGUCCCCUCGGUAAUGGCGAAUGGGACCCA | 0.0489
20 | GGCCGACAUGGUCCCAGCCUCGUCGCUGGCGCCGGCUGGGCAACAUUCCGAGGGGACCGUCCCCUCGGUAAUGGCGAAUGGGACCCA | 0.0739
21 | GGCCGACAUGGUCCCAGCCUCCUCGCUGGCGCCGGCUGGGCAACAUUCCGAGGGGACCGUCCCCUCGGUAAUGGCGAAUGGGAACCA | 0.431
22 | GGCCUGCAUGGUCCCAGCCUCCUCGCUGGCGCCGGCUGGGCAACAUUCCUAGGGGACCGUCCCCUCGGUAAUGGCGAAUGGGACCCA | 0.795

Row | Variant | self-cleavage
23 | GGCCUGCAUGGUCCCAGCCUCCUCGCUGGCGCCGGCUGGGCAACAUUCCAAGGGGACCGUCCCCUCGGUAAUGGCGAAUGGGACCCA | 0.196
24 | GGCCUGCAUGGUCCCAGCCUCCUCGCUGGCGCCGCCUGGGCAACAUUCCGAGGGGACCGUCCCCUCGGUAAUGGCGAAUGGGACCCA | 0
25 | GGCCGACAUGGUCCCAGCCUCCUCGCUGGCGCCGGCUGGGCAACAUUCCGAGGGGACCGUCCCCUCGGUAAUGGCGAAUGGGACUCA | 0.735
26 | GGCCGACAUGGUCCCAGCCUCCUCGCUGGCGCCGGCUGGGCAACAUUCCGAGGGGACCGUCCCCUCGGUAAUGGCGAAUGGGACGCA | 0.608
27 | GGCCGACAUGAUCCCAGCCUCCUCGCUGGCGCCGGCUGGGCAACAUUCCGAGGGGACCGUCCCCUCGGUAAUGGCGAAUGGGACCCA | 0.128
28 | GGCCUGCAUGGGCCCAGCCUCCUCGCUGGCGCCGGCUGGGCAACAUUCCGAGGGGACCGUCCCCUCGGUAAUGGCGAAUGGGACCCA | 0.356
29 | GGCCGACAUGGUCCCAGCCUCCUCGCUAGCGCCGGCUGGGCAACAUUCCGAGGGGACCGUCCCCUCGGUAAUGGCGAAUGGGACCCA | 0.0817
30 | GGCCUGCAUGGUCCCAGCCACCUCGCUGGCGCCGGCUGGGCAACAUUCCGAGGGGACCGUCCCCUCGGUAAUGGCGAAUGGGACCCA | 0
31 | GGCCUGCAUGGUCCCAGCCUCCUCGCUGGCGCCGGCUGGGCAACAUUCCGAGGGGACCGUCCCCCCGGUAAUGGCGAAUGGGACCCA | 0.723
32 | GGCCUGCAUGGUCCCAGCCUCCUCGCUGGCGCCGGCUGGGCAACAUUCCGAGGGGACCGUCCCCUCGGUAAUGACGAAUGGGACCCA | 0.125
33 | GGCCUGCAUGGUCCCAGCCUCCUCGCUGGCGCCGGCUGGGCAACAUUCCGAGGGGACCGUCCCCUCGGUAAUGCCGAAUGGGACCCA | 0.0475
34 | GGCCUGCAUGGUCCCAGCCUCCUCGCUGGCGCCGGCUGGGCAACAUUCCGAGGGGACCGUCCCCUCGGUAAUGGCGAAUGGGACGCA | 0.289
35 | GGCCUGCACGGUCCCAGCCUCCUCGCUGGCGCCGGCUGGGCAACAUUCCGAGGGGACCGUCCCCUCGGUAAUGGCGAAUGGGACCCA | 0.332
36 | GGCCUGCAGGGUCCCAGCCUCCUCGCUGGCGCCGGCUGGGCAACAUUCCGAGGGGACCGUCCCCUCGGUAAUGGCGAAUGGGACCCA | 0.554
37 | GGCCGACAUGGUCCCAGCCUCCUCGCUGGCGCCGGCUGGGCAACAUUCCGAGGGGACCGUGCCCUCGGUAAUGGCGAAUGGGACCCA | 0.712
38 | GGCCUGCAUGGUCCCAGCCUCCUCGCUGGCGCCGGCUGGGCAACAUUCCGAGGGGACCUUCCCCUCGGUAAUGGCGAAUGGGACCCA | 0.633
39 | GGCCUGCAUGGUCCCAGCCUCCUCGCUGGCGCCGGCUGGGCAACAUUCCGAGGGGACCGUCCCCUCGGUAAUGGCGAAUAGGACCCA | 0.208
40 | GGCCGAUAUGGUCCCAGCCUCCUCGCUGGCGCCGGCUGGGCAACAUUCCGAGGGGACCGUCCCCUCGGUAAUGGCGAAUGGGACCCA | 0.283
41 | GGCCUGCAUGGUCCCAGCCUCCUCGCUGGCGCCGGCUGGGCAACAUUCCGAGGGGACCGUCCCCUCGGGAAUGGCGAAUGGGACCCA | 0.485
42 | GGCCUGCAUGGUCCCAGCCUCCCCGCUGGCGCCGGCUGGGCAACAUUCCGAGGGGACCGUCCCCUCGGUAAUGGCGAAUGGGACCCA | 0.462
43 | GGCCUGCAUGGUCCCAGCCUCCUCGCUGACGCCGGCUGGGCAACAUUCCGAGGGGACCGUCCCCUCGGUAAUGGCGAAUGGGACCCA | 0.285
44 | GGCCUGCAUGGUCCCAGCCUCCUCGCUGGCGCCGGCUGCGCAACAUUCCGAGGGGACCGUCCCCUCGGUAAUGGCGAAUGGGACCCA | 0.26

Row | Variant | self-cleavage
45 | GGCCGACAUGGUCCCAGCCUCCUCGCUGGCGCCGGCUGGGCAACAUUCCGAGGGGACCGUCCCCUCGGUAAUGGCGAAUGGGACCCG | 0.654
46 | GGCCUGCAUGGUCCCAGCCUCCUCGCUGGCGCCGGCUAGGCAACAUUCCGAGGGGACCGUCCCCUCGGUAAUGGCGAAUGGGACCCA | 0.119
47 | GGCCUGCAUGGUCCCAGCCUCCUCGCUGGCGCCGGCUUGGCAACAUUCCGAGGGGACCGUCCCCUCGGUAAUGGCGAAUGGGACCCA | 0.453
48 | GGCCGACAUGGUCCCAGCCUCCUCGCUGGCGCCGGCUGGGCAACCUUCCGAGGGGACCGUCCCCUCGGUAAUGGCGAAUGGGACCCA | 0.0519
49 | GGCCGACAUGGUCCCAGCCUCCUCGCUGGCGCCGGCUGGGCAACGUUCCGAGGGGACCGUCCCCUCGGUAAUGGCGAAUGGGACCCA | 0.425
50 | GGCCGACAUUGUCCCAGCCUCCUCGCUGGCGCCGGCUGGGCAACAUUCCGAGGGGACCGUCCCCUCGGUAAUGGCGAAUGGGACCCA | 0.0963
51 | GGCCGACAUGGUCCCACCCUCCUCGCUGGCGCCGGCUGGGCAACAUUCCGAGGGGACCGUCCCCUCGGUAAUGGCGAAUGGGACCCA | 0.0923
52 | GGCCGACAUGGUCCCAACCUCCUCGCUGGCGCCGGCUGGGCAACAUUCCGAGGGGACCGUCCCCUCGGUAAUGGCGAAUGGGACCCA | 0.318
53 | GGCCGACAUGGUCCCAGCCUCCUCGCUGGCGCCGGCUGGGCAACAUUCCGAGGGGAGCGUCCCCUCGGUAAUGGCGAAUGGGACCCA | 0.643
54 | GGCCGACAUGGUCCCAGCCUCCUCGCUGGCGCCGGCUGGGCAACAUUCCGAGGGGAACGUCCCCUCGGUAAUGGCGAAUGGGACCCA | 0.966
55 | GGCCUGCAUGGUCCCAGCCUCCUCGCUGGCGCCGGCUGGGCAACAUUCCGAGGGUACCGUCCCCUCGGUAAUGGCGAAUGGGACCCA | 0.394
56 | GGCCGACAUGGUCCCAGCCUCCUCGCUGGCGACGGCUGGGCAACAUUCCGAGGGGACCGUCCCCUCGGUAAUGGCGAAUGGGACCCA | 0.277
57 | GGCCGACAUGGUGCCAGCCUCCUCGCUGGCGCCGGCUGGGCAACAUUCCGAGGGGACCGUCCCCUCGGUAAUGGCGAAUGGGACCCA | 0
58 | GGCCUGCAUGGUCCCAGCCUCCUCGCUGGCGCCAGCUGGGCAACAUUCCGAGGGGACCGUCCCCUCGGUAAUGGCGAAUGGGACCCA | 0.0875
59 | GGCCUGCAUGGUCCCAGCCUCCUCGCUGGCGCCGGCUGGGCAACAUUCCGAGGGGACCGUCCCCUCGGUAAUUGCGAAUGGGACCCA | 0.122
60 | GGCCUGCAUGGUCCCAGCCUCCUCGCUGGCGCCGGCUGGGCAACAUUCCGAGGGGACCGUCCCCUCGGUAAUAGCGAAUGGGACCCA | 0.0665
61 | GGCCGACUUGGUCCCAGCCUCCUCGCUGGCGCCGGCUGGGCAACAUUCCGAGGGGACCGUCCCCUCGGUAAUGGCGAAUGGGACCCA | 0.475
62 | GGCCGACAUGGUCCCAGCCUCCUCGCUGCCGCCGGCUGGGCAACAUUCCGAGGGGACCGUCCCCUCGGUAAUGGCGAAUGGGACCCA | 0.0326
63 | GGCCUGCAUGGUCCCAGCCUCCUCGCUGGCGCCGGCUGGGCAACAUACCGAGGGGACCGUCCCCUCGGUAAUGGCGAAUGGGACCCA | 0.378
64 | GGCCGACAUGGUCCGAGCCUCCUCGCUGGCGCCGGCUGGGCAACAUUCCGAGGGGACCGUCCCCUCGGUAAUGGCGAAUGGGACCCA | 0.133
